Assay [1] addresses human Tau(pS422) fragment (residues 416 to 430 with phosphorylated serine 422) (human). In words: ELISA, coated antigen.
For assay [2] the target is unchanged. Put plainly: ELISA, biotinylated peptide on streptavidin plate.
Assay [3] has the same target. Put plainly: ELISA, ratio of EC50 values.

A value given as a limit tells only on which side of the number the result lay.

B1: VH32/VL21 (antibody, V domains shown)
VH: EVQVLESGGGLVQPGGSLRLSCAVSGFSLSSNAINWVRQAPGKGLEWVGYIAVSGNTYYASWAKGRFTISRDNSKNTVYLQMNSLRAEDTAVYYCGKSNIWGQGTLVTVSS
VL: AQVMTQSPSSLSASVGDRVTITCRSSQSVRTNKLAWFQQKPGQPPKRLIYSASTLDFGVPSRFSGSGSGTEFTLTISSLQPEDFATYYCLGYFDSSADIVAFGGGTKVEIK
With B1, the EC50 in assay [1] was 4.4 ng/mL.

B2: rabbit antibody Mab 086 (VH00/VL00) (antibody, V domains shown)
VH: QSVEESGGRLVTPGTPLTLTCTVSGFSLSSNAINWVRQAPGKGLEWIGYIAVSGNTYYASWAKGRFTISKASTTVDLKMTSPTAEDTGTYFCGKSNIWGPGTLVTVSL
VL: AQVLTQTTSPVSAAVGSTVTISCQSSQSVRTNKLAWFQQKPGQPPKRLIYSASTLDFGVPSRFSASGSGTQFTLTISDVQCDDAATYYCLGYFDCSIADCVAFGGGTEVVVK
For the molecule B2, the EC50 in assay [2] is 1.1 ng/mL; in assay [1], 6.3 ng/mL. Besides, the selectivity over non-phosphorylated Tau peptide in assay [3] is greater than 100 fold.

These data come from patent US20200223912A1.
